Assay results published in US10377818B2, “Method of treating glioma” (The Board of Trustees of the Leland Stanford Junior …, priority 2015, dated 2019).

Legend:
Format in all cases: cell-based, human
[1] = test system: MAPK pathway (phospho-ERK1/2 T202/Y204); assay: Western blot of phospho-ERK1/2 as indicator of MAPK pathway activation; conditions: NLGN3 50 nM vs aCSF
Method: A) Western blot analysis of phosphorylated ERK1/2 (Thr202/Tyr204) and total ERK1/2 in SU-pcBGM2 cells after exposure to either aCSF or NLGN3 (50 nM). […] B) Phosphorylated ERK1/2 levels were normalized to total ERK1/2 levels. […] All experiments performed in three biological replicates and analyzed by unpaired two-way Student's t-test. Data presented as mean±SEM. **P<0.01, ***P<0.001. n.s. indicates P>0.05.
Endogenous protein levels were determined using Western blot analysis. Briefly, after various treatments, 400,000 SU-pcGBM2 cells were lysed and loaded onto SDS-PAGE gels. Proteins were separated with gel electrophoresis and transferred to a PVDF membrane. Proteins were then probed for various antibodies as described in extended experimental procedures.

Fos mRNA = assay: qPCR of Fos gene expression in pHGG cells; conditions: 50 nM NLGN3, 1 hour vs vehicle
Method: (§1) A) Signaling through the PI3K pathway increases in response to NLGN3. Representative Western blot illustrating increased phosphorylation of AKT in response to various concentrations of NLGN3 ranging from 0-50 nM. p-AKT is shown in top panel; total AKT is shown in the bottom panel. B) Quantification of the increased fold change of pAKT/AKT ratio in response to NLGN3 at various doses (oneway ANOVA, F=17.99, P<001; data shown as mean±SEM; *P<0.05, **P<0.01, ***P<0.001 by Tukey's post-hoc tests to further examine pairwise comparisons). Fold change is normalized to blank media (aCSF). (C) Fos mRNA expression increases after 1 hour exposure to […] 50 nM NLGN3 (data shown as mean±SEM; **P<0.01 by unpaired two-tailed Student's t-test). D) NLGN3 mRNA expression increases after 12 hour exposure to 50 nM NLGN3 vs. vehicle in SU-[…] cells. […]
(§2) After various cell treatments (described in extended experimental procedures), RNA was extracted from 500,000 SU-pcGBM2 or SU-[…] cells using TRIzol reagent. cDNA was generated using RT-PCR, and gene expression changes were further probed using quantitative PCR.
(§3) 500,000 SU-pcGBM2 cells were exposed to either aCSF, 50 nM NLGN3 (Origene Technologies, Rockville), 500 nM BKM120 (SelleckChem, Houston, Tex.), 50 nM EGF (Shenandoah, Warwick, R.I.), or a combination of the above treatments. […] Differential expression was determined using the delta CT method. […]

[2] = test system: NLGN3 protein in SU-pcGBM2 cells; assay: Western blot of NLGN3 protein expression in glioma cells; conditions: 50 nM NLGN3 for 12 hours, then 24 hours recovery in fresh media
Method: as §1, with “cells. Data shown as mean±SEM; *P<0.05 by unpaired two-tailed Student's t-test.” for “cells.”
(§4) Endogenous protein levels were determined using Western blot analysis. […]
(§5) Briefly, in FIG. 5, panel A, cells were lysed after 1-hour exposure to 0 nM, 5 nM, 10 nM, or 50 nM recombinant NLGN3 (Origene Technologies, Rockville, Md.), using RIPA buffer and protease inhibitors. […] Protein concentration in the lysate was determined using a Bradford assay. […] Proteins were visualized using Clarity ECL Western Substrate (BioRad, Hercules, Calif.) and quantified using ImageJ.

[3] = test system: PI3K pathway (phospho-AKT); assay: Western blot of phospho-AKT as indicator of PI3K pathway activity; conditions: recombinant NLGN3 0-50 nM, 1 hour
Method: as §1, with “cells. Data shown as mean±SEM; *P<0.05 by unpaired two-tailed Student's t-test.” for “cells.”
as §4, §5

SU-pcGBM2 cells = assay: EdU incorporation assay, proliferation index of pHGG cells (SU-pcGBM2)
[4] = test system: NLGN3 mRNA in SU-DIPGXIII cells; assay: qPCR of NLGN3 gene expression in DIPG cells; conditions: 50 nM recombinant NLGN3, 12 hour vs vehicle
Method: as §1, §2, §3

B1: NLGN3: Recombinant full-length neuroligin-3 (Origene), tested as glioma mitogen (protein, listed as Mus musculus)
chain: MWLQPSLSLSPTPTVGRSLCLTLGFLSLVLRASTQAPAPTVNTHFGKLRGARVPLPSEILGPVDQYLGVPYAAPPIGEKRFLPPEPPPSWSGIRNATHFPPVCPQNIHTAVPEVMLPVWFTANLDIVATYIQEPNEDCLYLNVYVPTEDGSGAKKQGEDLADNDGDEDEDIRDSGAKPVMVYIHGGSYMEGTGNMIDGSVLASYGNVIVITLNYRVGVLGFLSTGDQAAKGNYGLLDQIQALRWVSENIAFFGGDPRRITVFGSGIGASCVSLLTLSHHSEGLFQRAIIQSGSALSSWAVNYQPVKYTSLLADKVGCNVLDTVDMVDCLRQKSAKELVEQDIQPARYHVAFGPVIDGDVIPDDPEILMEQGEFLNYDIMLGVNQGEGLKFVEGVVDPEDGVSGTDFDYSVSNFVDNLYGYPEGKDTLRETIKFMYTDWADRDNPETRRKTLVALFTDHQWVEPSVVTADLHARYGSPTYFYAFYHHCQSLMKPAWSDAAHGDEVPYVFGVPMVGPTDLFPCNFSKNDVMLSAVVMTYWTNFAKTGDPNKPVPQDTKFIHTKANRFEEVAWSKYNPRDQLYLHIGLKPRVRDHYRATKVAFWKHLVPHLYNLHDMFHYTSTTTKVPPPDTTHSSHITRRPNGKTWSTKRPAISPAYSNENAPGSWNGDQDAGPLLVENPRDYSTELSVTIAVGASLLFLNVLAFAALYYRKDKRRQEPLRQPSPQRGTGAPELGTAPEEELAALQLGPTHHECEAGPPHDTLRLTALPDYTLTLRRSPDDIPLMTPNTITMIPNSLVGLQTLHPYNTFAAGFNSTGLPHSHSTTRV
[1]
  phospho-ERK1/2 T202/Y204: did not reveal upregulation
Fos mRNA
  Fos gene expression: upregulation of Fos gene expression
[2]
  NLGN3 protein expression: Protein expression of NLGN3 following glioma cell NLGN3 exposure was confirmed
[3]
  phospho-AKT levels relative to total AKT: increased phospho-AKT levels relative to total AKT in a dose-dependent manner
SU-pcGBM2 cells; pHGG cells exposed to 50 nM NLGN3, 24 h, EdU
  proliferation index: 0.40±0.01
SU-pcGBM2 cells; recombinant NLGN3 0-100 nM, 24 hours
  effect on proliferation index, dose curve: promotes proliferation, matching the mitogenic effect of active CM at low nanomolar concentrations
SU-pcGBM2 cells; recombinant candidate proteins at 100 nM for 24 hours
  effect on proliferation index relative to aCSF control: promote glioma cell proliferation
[4]
  NLGN3 gene expression: increase in glioma cell NLGN3 gene expression
